Source: the supplement of paper PMC5998384

Assays:
HeLa Kyoto [1] = test: solubility change mitosis vs G1/S (difference of NP-40 vs SDS log2 ratios) (log2 ratio difference); higher = more soluble in mitosis
HeLa Kyoto [2] = test: melting temperature (median over replicates), in situ; higher = more thermally stable
HeLa Kyoto [3] = test: solubility in G1/S (NP-40 vs SDS abundance) (log2 ratio); higher = more soluble; details: cell cycle stage: G1/S
HeLa Kyoto [4] = test: thermal stability score vs G1/S (z-score of summed log2 fold changes over temperatures); higher = more thermally stable than in G1/S
[5] = cell cycle stage: early G1 (4.5 h after nocodazole release)
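Throughout, for melting temperature (median over replicates), in situ: HeLa Kyoto cells synchronized by double thymidine or nocodazole block, proteins quantified by TMT10plex mass spectrometry, three independent biological replicates.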
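Throughout, for solubility change mitosis vs G1/S (difference of NP-40 vs SDS log2 ratios): synchronized HeLa Kyoto cells (double thymidine block for G1/S, nocodazole release for mitosis), protein amounts in NP-40 versus SDS lysates quantified by mass spectrometry, three biological replicates.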
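Throughout, for solubility in G1/S (NP-40 vs SDS abundance): HeLa Kyoto cells arrested at G1/S by double thymidine block, proteins quantified by TMT10plex mass spectrometry in mild NP-40 versus SDS extracts, three biological replicates.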
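Throughout, for thermal stability score vs G1/S (z-score of summed log2 fold changes over temperatures): synchronized HeLa Kyoto cells, proteins quantified by TMT10plex mass spectrometry, three biological replicates, mitosis taken 0.5 h after nocodazole release, G1/S directly after double thymidine block.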

Sequence	solubility change mitosis (log2) (HeLa Kyoto [1])	melting temperature (HeLa Kyoto [2]; cell cycle stage: G1/S)	melting temperature (HeLa Kyoto [2]; cell cycle stage: mitosis)	solubility in G1/S (log2) (HeLa Kyoto [3])	thermal stability score (HeLa Kyoto [4]; [5])	thermal stability score (HeLa Kyoto [4]; cell cycle stage: mitosis)
MFSSVAHLARANPFNTPHLQLVHDGLGDLRSSSPGPTGQPRRPRNLAAAAVEEQYSCDYGSGRFFILCGLGGIISCGTTHTALVPLDLVKCRMQVDPQKYKGIFNGFSVTLKEDGVRGLAKGWAPTFLGYSMQGLCKFGFYEVFKVLYSNMLGEENTYLWRTSLYLAASASAEFFADIALAPMEAAKVRIQTQPGYANTLRDAAPKMYKEEGLKAFYKGVAPLWMRQIPYTMMKFACFERTVEALYKFVVPKPRSECSKPEQLVVTFVAGYIAGVFCAIVSHPADSVVSVLNKEKGSSASLVLKRLGFKGVWKGLFARIIMIGTLTALQWFIYDSVKVYFRLPRPPPPEMPESLKKKLGLTQ [SLC25A3]	-0.0903	56.3 °C	56 °C	-0.0671	-1.42	-3.39
MFSVESLERAELCESLLTWIQTFNVDAPCQTVEDLTNGVVMAQVLQKIDPAYFDENWLNRIKTEVGDNWRLKISNLKKILKGILDYNHEILGQQINDFTLPDVNLIGEHSDAAELGRMLQLILGCAVNCEQKQEYIQAIMMMEESVQHVVMTAIQELMSKESPVSAGNDAYVDLDRQLKKTTEELNEALSAKEEIAQRCHELDMQVAALQEEKSSLLAENQVLMERLNQSDSIEDPNSPAGRRHLQLQTQLEQLQEETFRLEAAKDDYRIRCEELEKEISELRQQNDELTTLADEAQSLKDEIDVLRHSSDKVSKLEGQVESYKKKLEDLGDLRRQVKLLEEKNTMYMQNTVSLEEELRKANAARSQLETYKRQVVELQNRLSEESKKADKLDFEYKRLKEKVDSLQKEKDRLRTERDSLKETIEELRCVQAQEGQLTTQGLMPLGSQESSDSLAAEIVTPEIREKLIRLQHENKMLKLNQEGSDNEKIALLQSLLDDANLRKNELETENRLVNQRLLEVQSQVEELQKSLQDQGSKAEDSVLLKKKLEEHLEKLHEANNELQKKRAIIEDLEPRFNNSSLKIEELQEALRKKEEEMKQMEERYKKYLEKAKSVIRTLDPKQNQGAAPEIQALKNQLQERDRLFHSLEKEYEKTKSQREMEEKYIVSAWYNMGMTLHKKAAEDRLASTGSGQSFLARQRQATSSRRSYPGHVQPATAR [HOOK3]	-0.00542	50.4 °C	51 °C	0.753	0.316	0.85
MFTLAEVASLNDIQPTYRILKPWWDVFMDYLAVVMLMVAIFAGTMQLTKDQVVCLPVLPSPVNSKAHTPPGNAEVTTNIPKMEAATNQDQDGRTTNDISFGTSAVTPDIPLRATYPRTDFALPNQEAKKEKKDPTGRKTNLDFQQYVFINQMCYHLALPWYSKYFPYLALIHTIILMVSSNFWFKYPKTCSKVEHFVSILGKCFESPWTTKALSETACEDSEENKQRITGAQTLPKHVSTSSDEGSPSASTPMINKTGFKFSAEKPVIEVPSMTILDKKDGEQAKALFEKVRKFRAHVEDSDLIYKLYVVQTVIKTAKFIFILCYTANFVNAISFEHVCKPKVEHLIGYEVFECTHNMAYMLKKLLISYISIICVYGFICLYTLFWLFRIPLKEYSFEKVREESSFSDIPDVKNDFAFLLHMVDQYDQLYSKRFGVFLSEVSENKLREISLNHEWTFEKLRQHISRNAQDKQELHLFMLSGVPDAVFDLTDLDVLKLELIPEAKIPAKISQMTNLQELHLCHCPAKVEQTAFSFLRDHLRCLHVKFTDVAEIPAWVYLLKNLRELYLIGNLNSENNKMIGLESLRELRHLKILHVKSNLTKVPSNITDVAPHLTKLVIHNDGTKLLVLNSLKKMMNVAELELQNCELERIPHAIFSLSNLQELDLKSNNIRTIEEIISFQHLKRLTCLKLWHNKIVTIPPSITHVKNLESLYFSNNKLESLPVAVFSLQKLRCLDVSYNNISMIPIEIGLLQNLQHLHITGNKVDILPKQLFKCIKLRTLNLGQNCITSLPEKVGQLSQLTQLELKGNCLDRLPAQLGQCRMLKKSGLVVEDHLFDTLPLEVKEALNQDINIPFANGI [LRRC8D]	-0.126	53.7 °C	53 °C	0.141	0.491	0.22
MFTSTGSSGLYKAPLSKSLLLVPSALSLLLALLLPHCQKLFVYDLHAVKNDFQIWRLICGRIICLDLKDTFCSSLLIYNFRIFERRYGSRKFASFLLGSWVLSALFDFLLIEAMQYFFGITAASNLPSGFLAPVFALFVPFYCSIPRVQVAQILGPLSITNKTLIYILGLQLFTSGSYIWIVAISGLMSGLCYDSKMFQVHQVLCIPSWMAKFFSWTLEPIFSSSEPTSEARIGMGATLDIQRQQRMELLDRQLMFSQFAQGRRQRQQQGGMINWNRLFPPLRQRQNVNYQGGRQSEPAAPPLEVSEEQVARLMEMGFSRGDALEALRASNNDLNVATNFLLQH [UBAC2]	-0.209	50.4 °C	51.2 °C	-0.173	0.579	1.39
MFWKFDLHTSSHLDTLLEREDLSLPELLDEEDVLQECKVVNRKLLDFLLQPPHLQAMVAWVTQEPPDSGEERLRYKYPSVACEILTSDVPQINDALGADESLLNRLYGFLQSTGSLNPLLASFFSKVMGILINRKTDQLVSFLRKKDDFVDLLLQHIGTSAIMDLLLRLLTCVERPQLRQDVVNWLNEEKIVQRLIEQIHPSKDENQHSNASQSLCDIIRLSREQMIQVQDSPEPDQLLATLEKQETIEQLLSNMFEGEQSQSVIVSGIQVLLTLLEPRRPRSESVTVNSFFSSVDGQLELLAQGALESTVSSVGALHALRPRLSCFHQLLLEPPKLEPLQMTWGMLAPPLGNTRLHVVKLLASALSANDAALTHELLALDVPNTMLDLFFHYVFNNFLHAQVEGCVSTMLSLGPPPDSSPETPIQNPVVKHLLQQCRLVERILTSWEENDRVQCAGGPRKGYMGHLTRVAGALVQNTEKGPNAEQLRQLLKELPSEQQEQWEAFVSGPLAETNKKNMVDLVNTHHLHSSSDDEDDRLKEFNFPEEAVLQQAFMDFQMQRMTSAFIDHFGFNDEEFGEQEESVNAPFDKTANITFSLNADDENPNANLLEICYKDRIQQFDDDEEEEDEEEAQGSGESDGEDGAWQGSQLARGARLGQPPGVRSGGSTDSEDEEEEDEEEEEDEEGIGCAARGGATPLSYPSPGPQPPGPSWTATFDPVPTDAPTSPRVSGEEELHTGPPAPQGPLSVPQGLPTQSLASPPARDALQLRSQDPTPPSAPQEATEGSKVTEPSAPCQALVSIGDLQATFHGIRSAPSSSDSATRDPSTSVPASGAHQPPQTTEGEKSPEPLGLPQSQSAQALTPPPIPNGSAPEGPASPGSQ [PPP6R1]	-0.0433	53.1 °C	50.6 °C	0.169	-1.2	-0.743
MGAPLLSPGWGAGAAGRRWWMLLAPLLPALLLVRPAGALVEGLYCGTRDCYEVLGVSRSAGKAEIARAYRQLARRYHPDRYRPQPGDEGPGRTPQSAEEAFLLVATAYETLKDEETRKDYDYMLDHPEEYYSHYYHYYSRRLAPKVDVRVVILVSVCAISVFQFFSWWNSYNKAISYLATVPKYRIQATEIAKQQGLLKKAKEKGKNKKSKEEIRDEEENIIKNIIKSKIDIKGGYQKPQICDLLLFQIILAPFHLCSYIVWYCRWIYNFNIKGKEYGEEERLYIIRKSMKMSKSQFDSLEDHQKETFLKRELWIKENYEVYKQEQEEELKKKLANDPRWKRYRRWMKNEGPGRLTFVDD [DNAJC25]	0.00727	50.5 °C	50.2 °C	-0.101	0.0789	-0.224
MGARASGGPLARAGLLLLLLLLLLLGLLAPGAQGARGRGGAEKNSYRRTVNTFSQSVSSLFGEDNVRAAQKFLARLTERFVLGVDMFVETLWKVWTELLDVLGLDVSNLSQYFSPASVSSSPARALLLVGVVLLAYWFLSLTLGFTFSVLHVVFGRFFWIVRVVLFSMSCVYILHKYEGEPENAVLPLCFVVAVYFMTGPMGFYWRSSPSGPSNPSNPSVEEKLEHLEKQVRLLNIRLNRVLESLDRSKDK [BRI3BP]	0.0237	55.1 °C	53.1 °C	-0.138	-0.814	-3.07
MGAYARASGVCARGCLDSAGPWTMSRALRPPLPPLCFFLLLLAAAGARAGGYETCPTVQPNMLNVHLLPHTHDDVGWLKTVDQYFYGIKNDIQHAGVQYILDSVISALLADPTRRFIYVEIAFFSRWWHQQTNATQEVVRDLVRQGRLEFANGGWVMNDEAATHYGAIVDQMTLGLRFLEDTFGNDGRPRVAWHIDPFGHSREQASLFAQMGFDGFFFGRLDYQDKWVRMQKLEMEQVWRASTSLKPPTADLFTGVLPNGYNPPRNLCWDVLCVDQPLVEDPRSPEYNAKELVDYFLNVATAQGRYYRTNHTVMTMGSDFQYENANMWFKNLDKLIRLVNAQQAKGSSVHVLYSTPACYLWELNKANLTWSVKHDDFFPYADGPHQFWTGYFSSRPALKRYERLSYNFLQVCNQLEALVGLAANVGPYGSGDSAPLNEAMAVLQHHDAVSGTSRQHVANDYARQLAAGWGPCEVLLSNALARLRGFKDHFTFCQQLNISICPLSQTAARFQVIVYNPLGRKVNWMVRLPVSEGVFVVKDPNGRTVPSDVVIFPSSDSQAHPPELLFSASLPALGFSTYSVAQVPRWKPQARAPQPIPRRSWSPALTIENEHIRATFDPDTGLLMEIMNMNQQLLLPVRQTFFWYNASIGDNESDQASGAYIFRPNQQKPLPVSRWAQIHLVKTPLVQEVHQNFSAWCSQVVRLYPGQRHLELEWSVGPIPVGDTWGKEVISRFDTPLETKGRFYTDSNGREILERRRDYRPTWKLNQTEPVAGNYYPVNTRIYITDGNMQLTVLTDRSQGGSSLRDGSLELMVHRRLLKDDGRGVSEPLMENGSGAWVRGRHLVLLDTAQAAAAGHRLLAEQEVLAPQVVLAPGGGAAYNLGAPPRTQFSGLRRDLPPSVHLLTLASWGPEMVLLRLEHQFAVGEDSGRNLSAPVTLNLRDLFSTFTITRLQETTLVANQLREAASRLKWTTNTGPTPHQTPYQLDPANITLEPMEIRTFLASVQWKEVDG [MAN2B1]	-0.109	57.1 °C	56.6 °C	0.313	-0.143	-1.1
MGAYLSQPNTVKCSGDGVGAPRLPLPYGFSAMQGWRVSMEDAHNCIPELDSETAMFSVYDGHGGEEVALYCAKYLPDIIKDQKAYKEGKLQKALEDAFLAIDAKLTTEEVIKELAQIAGRPTEDEDEKEKVADEDDVDNEEAALLHEEATMTIEELLTRYGQNCHKGPPHSKSGGGTGEEPGSQGLNGEAGPEDSTRETPSQENGPTAKAYTGFSSNSERGTEAGQVGEPGIPTGEAGPSCSSASDKLPRVAKSKFFEDSEDESDEAEEEEEDSEECSEEEDGYSSEEAENEEDEDDTEEAEEDDEEEEEEMMVPGMEGKEEPGSDSGTTAVVALIRGKQLIVANAGDSRCVVSEAGKALDMSYDHKPEDEVELARIKNAGGKVTMDGRVNGGLNLSRAIGDHFYKRNKNLPPEEQMISALPDIKVLTLTDDHEFMVIACDGIWNVMSSQEVVDFIQSKISQRDENGELRLLSSIVEELLDQCLAPDTSGDGTGCDNMTCIIICFKPRNTAELQPESGKRKLEEVLSTEGAEENGNSDKKKKAKRD [PPM1G]	-0.0729	48.4 °C	49.4 °C	0.104	2.65	8.41
MGCFFSKRRKADKESRPENEEERPKQYSWDQREKVDPKDYMFSGLKDETVGRLPGTVAGQQFLIQDCENCNIYIFDHSATVTIDDCTNCIIFLGPVKGSVFFRNCRDCKCTLACQQFRVRDCRKLEVFLCCATQPIIESSSNIKFGCFQWYYPELAFQFKDAGLSIFNNTWSNIHDFTPVSGELNWSLLPEDAVVQDYVPIPTTEELKAVRVSTEANRSIVPISRGQRQKSSDESCLVVLFAGDYTIANARKLIDEMVGKGFFLVQTKEVSMKAEDAQRVFREKAPDFLPLLNKGPVIALEFNGDGAVEVCQLIVNEIFNGTKMFVSESKETASGDVDSFYNFADIQMGI [RP2]	-0.158	51.6 °C	51.1 °C	-0.343	-0.738	-0.982
